Assay results as given in patent US20030068675, “Position dependent recognition of GNN nucleotide triplets by zinc fingers” (published 2003).

Columns and labels:
Assay in all cases: EMSA
Conditions in all cases: tags: MBP fusion
ZFP SBS#1404 = molecular target: T1, ZFP SBS#1404 (synthetic)
T1 chain: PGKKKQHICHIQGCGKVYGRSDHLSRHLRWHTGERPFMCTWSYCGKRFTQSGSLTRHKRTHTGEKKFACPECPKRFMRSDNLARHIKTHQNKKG
Summary of the method: (§1)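 Purified ZFP was titrated against labeled double-stranded target (1 nM or lower, at least 10-fold below expected Kd) carrying the natural binding site with flanks. Binding buffer was 10 mM Tris pH 7.5, 100 mM KCl, 1 mM MgCl2, 0.1 mM ZnCl2, 5 mM DTT, 10% glycerol, 0.02% BSA, with equilibration for at least 45 min. Bound and free target were separated on a 10% polyacrylamide gel.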

ZFP SBS#1405 = molecular target: T2, ZFP SBS#1405 (synthetic)
T2 chain: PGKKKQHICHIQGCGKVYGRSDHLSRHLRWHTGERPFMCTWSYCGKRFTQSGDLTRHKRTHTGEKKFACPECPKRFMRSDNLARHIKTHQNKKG
Summary of the method: as §1

ZFP SBS#1418 = molecular target: T3, ZFP SBS#1418 (synthetic)
T3 chain: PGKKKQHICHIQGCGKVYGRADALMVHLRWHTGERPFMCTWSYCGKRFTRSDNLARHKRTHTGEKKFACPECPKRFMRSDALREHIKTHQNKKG
Summary of the method: as §1

ZFP SBS#1402 = molecular target: T4, ZFP SBS#1402 (synthetic)
T4 chain: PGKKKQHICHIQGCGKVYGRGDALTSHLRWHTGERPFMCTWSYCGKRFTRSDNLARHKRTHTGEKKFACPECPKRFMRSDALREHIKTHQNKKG
Summary of the method: as §1

ZFP SBS#1416 = molecular target: T5, ZFP SBS#1416 (synthetic)
T5 chain: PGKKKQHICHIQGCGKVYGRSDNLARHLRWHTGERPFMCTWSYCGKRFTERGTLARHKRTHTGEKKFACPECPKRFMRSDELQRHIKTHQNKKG
Summary of the method: as §1

ZFP SBS#1415 = molecular target: T6, ZFP SBS#1415 (synthetic)
T6 chain: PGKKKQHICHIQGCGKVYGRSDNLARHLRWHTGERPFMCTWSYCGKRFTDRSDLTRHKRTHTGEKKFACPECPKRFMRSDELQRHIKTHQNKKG
Summary of the method: as §1

ZFP SBS#1406 = ZFP SBS#1406 (synthetic)
Summary of the method: as §1

ZFP SBS#1401 = molecular target: T7, ZFP SBS#1401 (synthetic)
T7 chain: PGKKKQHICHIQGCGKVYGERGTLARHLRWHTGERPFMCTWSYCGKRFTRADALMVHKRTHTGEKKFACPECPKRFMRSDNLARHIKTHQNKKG
Summary of the method: as §1

ZFP SBS#1417 = molecular target: T8, ZFP SBS#1417 (synthetic)
T8 chain: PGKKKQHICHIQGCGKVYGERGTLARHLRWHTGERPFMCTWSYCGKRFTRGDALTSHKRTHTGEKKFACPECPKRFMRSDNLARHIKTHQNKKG
Summary of the method: as §1

ZFP SBS#1403 = ZFP SBS#1403 (synthetic)
Summary of the method: as §1

ZFP SBS#1407 = ZFP SBS#1407 (synthetic)
Summary of the method: as §1

ZFP SBS#1424 = molecular target: T9, ZFP SBS#1424 (synthetic)
T9 chain: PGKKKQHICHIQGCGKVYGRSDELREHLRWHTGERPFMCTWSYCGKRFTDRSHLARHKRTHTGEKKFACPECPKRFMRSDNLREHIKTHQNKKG
Summary of the method: as §1

ZFP SBS#1427 = molecular target: T10, ZFP SBS#1427 (synthetic)
T10 chain: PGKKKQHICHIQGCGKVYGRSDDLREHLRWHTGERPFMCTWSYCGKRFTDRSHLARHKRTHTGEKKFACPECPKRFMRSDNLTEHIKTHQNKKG
Summary of the method: as §1

ZFP SBS#1423 = molecular target: T11, ZFP SBS#1423 (synthetic)
T11 chain: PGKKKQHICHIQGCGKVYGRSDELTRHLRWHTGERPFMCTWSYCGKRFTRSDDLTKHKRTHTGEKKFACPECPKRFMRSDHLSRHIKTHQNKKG
Summary of the method: as §1

ZFP SBS#1422 = molecular target: T12, ZFP SBS#1422 (synthetic)
T12 chain: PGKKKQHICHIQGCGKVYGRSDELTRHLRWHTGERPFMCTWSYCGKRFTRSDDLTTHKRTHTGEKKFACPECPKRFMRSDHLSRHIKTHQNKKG
Summary of the method: as §1

ZFP SBS#1413 = molecular target: T13, ZFP SBS#1413 (synthetic)
T13 chain: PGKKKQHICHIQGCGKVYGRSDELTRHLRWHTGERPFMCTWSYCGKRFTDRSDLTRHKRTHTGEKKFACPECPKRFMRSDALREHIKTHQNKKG
Summary of the method: as §1

ZFP SBS#1414 = molecular target: T14, ZFP SBS#1414 (synthetic)
T14 chain: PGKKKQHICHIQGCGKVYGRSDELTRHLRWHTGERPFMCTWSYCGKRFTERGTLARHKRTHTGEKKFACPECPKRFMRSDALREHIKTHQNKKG
Summary of the method: as §1

ZFP SBS#1395 = ZFP SBS#1395 (synthetic)
Summary of the method: as §1

ZFP SBS#1397 = ZFP SBS#1397 (synthetic)
Summary of the method: as §1

ZFP SBS#1396 = molecular target: T15, ZFP SBS#1396 (synthetic)
T15 chain: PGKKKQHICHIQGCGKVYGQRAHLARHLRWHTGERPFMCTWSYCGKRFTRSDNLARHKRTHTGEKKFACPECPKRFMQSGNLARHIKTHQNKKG
Summary of the method: as §1

ZFP SBS#1386 = molecular target: T16, ZFP SBS#1386 (synthetic)
T16 chain: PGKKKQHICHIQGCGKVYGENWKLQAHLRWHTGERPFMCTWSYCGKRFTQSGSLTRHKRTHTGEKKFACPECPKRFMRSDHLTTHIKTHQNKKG
Summary of the method: as §1

ZFP SBS#1385 = ZFP SBS#1385 (synthetic)
Summary of the method: as §1

ZFP SBS#1331 = molecular target: T17, ZFP SBS#1331 (synthetic)
T17 chain: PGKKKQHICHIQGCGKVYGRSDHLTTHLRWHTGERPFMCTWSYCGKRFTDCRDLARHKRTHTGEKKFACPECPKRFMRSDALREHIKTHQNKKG
Summary of the method: as §1

ZFP SBS#1329 = molecular target: T18, ZFP SBS#1329 (synthetic)
T18 chain: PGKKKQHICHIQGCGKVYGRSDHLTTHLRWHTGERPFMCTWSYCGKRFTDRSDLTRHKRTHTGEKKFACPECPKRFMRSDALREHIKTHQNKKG
Summary of the method: as §1

ZFP SBS#1389 = molecular target: T19, ZFP SBS#1389 (synthetic)
T19 chain: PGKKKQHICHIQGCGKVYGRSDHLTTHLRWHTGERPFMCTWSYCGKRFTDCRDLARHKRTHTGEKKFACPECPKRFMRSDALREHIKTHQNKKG
Summary of the method: as §1

ZFP SBS#1394 = ZFP SBS#1394 (synthetic, UniProt P08047)
Summary of the method: as §1

ZFP SBS#1393 = ZFP SBS#1393 (synthetic)
Summary of the method: as §1

ZFP SBS#1429 = ZFP SBS#1429 (synthetic)
Summary of the method: as §1

ZFP SBS#1428 = ZFP SBS#1428 (synthetic)
Summary of the method: as §1

ZFP SBS#1411 = ZFP SBS#1411 (synthetic)
Summary of the method: as §1

ZFP SBS#1410 = molecular target: T20, ZFP SBS#1410 (synthetic, UniProt P08047)
T20 chain: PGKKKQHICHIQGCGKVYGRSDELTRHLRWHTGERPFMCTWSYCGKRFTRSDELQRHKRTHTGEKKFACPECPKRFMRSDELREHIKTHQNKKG
Summary of the method: as §1

ZFP SBS#1400 = molecular target: T21, ZFP SBS#1400 (synthetic)
T21 chain: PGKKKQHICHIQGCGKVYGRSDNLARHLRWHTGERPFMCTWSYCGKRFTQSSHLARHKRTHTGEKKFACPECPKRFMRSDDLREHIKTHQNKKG
Summary of the method: as §1

ZFP SBS#1409 = molecular target: T22, ZFP SBS#1409 (synthetic)
T22 chain: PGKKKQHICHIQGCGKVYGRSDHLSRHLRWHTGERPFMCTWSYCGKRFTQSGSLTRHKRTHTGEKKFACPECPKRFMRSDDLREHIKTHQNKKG
Summary of the method: as §1

ZFP SBS#1408 = molecular target: T23, ZFP SBS#1408 (synthetic)
T23 chain: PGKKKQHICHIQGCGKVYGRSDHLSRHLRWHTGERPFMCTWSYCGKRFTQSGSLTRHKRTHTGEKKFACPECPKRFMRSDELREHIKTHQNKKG
Summary of the method: as §1

Chain of ZFP SBS#1395 (synthetic) (chain, as listed by the source): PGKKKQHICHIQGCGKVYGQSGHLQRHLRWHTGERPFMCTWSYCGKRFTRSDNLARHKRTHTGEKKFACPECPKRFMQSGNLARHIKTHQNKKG
Chain of ZFP SBS#1394 (P08047 other isoform, or with tags, fused parts or gaps): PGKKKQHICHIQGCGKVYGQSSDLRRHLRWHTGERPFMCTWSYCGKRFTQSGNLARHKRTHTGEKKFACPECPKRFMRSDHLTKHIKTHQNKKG
Chain of ZFP SBS#1385 (synthetic) (chain, as listed by the source): as the sequence (P08047 other isoform, or with tags, fused parts or gaps) above, with S22G, D23H, R25N, R26Q, N53S, A55T, K84T counted along it
Chain of ZFP SBS#1397 (synthetic) (chain, as listed by the source): as the sequence (P08047 other isoform, or with tags, fused parts or gaps) above, with D23H, R25A, Q50R, G52D, R78Q, D80G, H81N, T83A, K84R counted along it
Chain of ZFP SBS#1407 (synthetic) (chain, as listed by the source): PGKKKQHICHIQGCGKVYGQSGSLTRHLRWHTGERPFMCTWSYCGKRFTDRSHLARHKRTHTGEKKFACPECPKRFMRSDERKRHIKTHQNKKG
Chain of ZFP SBS#1406 (synthetic) (chain, as listed by the source): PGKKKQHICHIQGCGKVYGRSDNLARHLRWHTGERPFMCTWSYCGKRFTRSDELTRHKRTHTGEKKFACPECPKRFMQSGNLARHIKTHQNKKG

B1: GAGGCAGGG (dsDNA)
DNA 1: GAGGCAGGG
DNA 2: CCCTGCCTC
Kd (ZFP SBS#1404): 0.022 nM
Kd (ZFP SBS#1405): 0.045 nM

B2: CTGGAGTTG (dsDNA)
DNA 1: CTGGAGTTG
DNA 2: CAACTCCAG
Kd (ZFP SBS#1418): 0.241 nM
Kd (ZFP SBS#1402): 0.15 nM

B3: GCGGCCGAG (dsDNA)
DNA 1: GCGGCCGAG
DNA 2: CTCGGCCGC
Kd (ZFP SBS#1416): 0.153 nM
Kd (ZFP SBS#1415): 0.102 nM

B4: GAAGCGGAG (dsDNA)
DNA 1: GAAGCGGAG
DNA 2: CTCCGCTTC
Kd (ZFP SBS#1406): 0.025 nM

B5: GAGTTGGCC (dsDNA)
DNA 1: GAGTTGGCC
DNA 2: GGCCAACTC
Kd (ZFP SBS#1401): 0.167 nM
Kd (ZFP SBS#1417): 1.4 nM

B6: ATGGCAATG (dsDNA)
DNA 1: ATGGCAATG
DNA 2: CATTGCCAT
Kd (ZFP SBS#1403): 0.07 nM

B7: GCGGGCGCA (dsDNA)
DNA 1: GCGGGCGCA
DNA 2: TGCGCCCGC
Kd (ZFP SBS#1407): 0.585 nM

B8: CAGGGCCCG (dsDNA)
DNA 1: CAGGGCCCG
DNA 2: CGGGCCCTG
Kd (ZFP SBS#1424): 1.37 nM
Kd (ZFP SBS#1427): 0.271 nM

B9: GGGTCGGCG (dsDNA)
DNA 1: GGGTCGGCG
DNA 2: CGCCGACCC
Kd (ZFP SBS#1423): 0.034 nM
Kd (ZFP SBS#1422): 0.064 nM

B10: CTGGCCGCG (dsDNA)
DNA 1: CTGGCCGCG
DNA 2: CGCGGCCAG
Kd (ZFP SBS#1413): 0.152 nM
Kd (ZFP SBS#1414): 0.914 nM

B11: GAAGAGGGA (dsDNA)
DNA 1: GAAGAGGGA
DNA 2: TCCCTCTTC
Kd (ZFP SBS#1395): 0.025 nM
Kd (ZFP SBS#1397): 0.14 nM
Kd (ZFP SBS#1396): 0.107 nM

B12: TGGGCAAGA (dsDNA)
DNA 1: TGGGCAAGA
DNA 2: TCTTGCCCA
Kd (ZFP SBS#1386): 0.193 nM
Kd (ZFP SBS#1385): 0.229 nM

B13: CTGGCCTGG (dsDNA)
DNA 1: CTGGCCTGG
DNA 2: CCAGGCCAG
Kd (ZFP SBS#1331): 0.388 nM
Kd (ZFP SBS#1329): 0.68 nM
Kd (ZFP SBS#1389): 0.175 nM

B14: TGGGAAGCT (dsDNA)
DNA 1: TGGGAAGCT
DNA 2: AGCTTCCCA
Kd (ZFP SBS#1394): 0.04 nM
Kd (ZFP SBS#1393): 0.1 nM

B15: TGAGGCGAG (dsDNA)
DNA 1: TGAGGCGAG
DNA 2: CTCGCCTCA
Kd (ZFP SBS#1429): 0.074 nM
Kd (ZFP SBS#1428): 0.102 nM
Kd (ZFP SBS#1411): 0.282 nM

B16: CCGGCGGCG (dsDNA)
DNA 1: CCGGCGGCG
DNA 2: CGCCGCCGG
Kd (ZFP SBS#1410): 0.814 nM

B17: CCGGGTGAG (dsDNA)
DNA 1: CCGGGTGAG
DNA 2: CTCACCCGG
Kd (ZFP SBS#1400): 0.371 nM

B18: CCGGCAGGG (dsDNA)
DNA 1: CCGGCAGGG
DNA 2: CCCTGCCGG
Kd (ZFP SBS#1409): 0.153 nM
Kd (ZFP SBS#1408): 0.305 nM
